Several values for one entry are separate records, joined by “and”; a condition that tells them apart may be missing. Equal entries are not always repeated.
target: rat brain protein farnesyltransferase (rat)

Going from CVLM (peptide) to CIIC (peptide), the Concentration for 50% Inhibition (farnesylation of p21^H-ras) rises from 0.15 µM to 0.35 µM (2.3-fold).

First: CAIL (peptide)
Second: CVIA (peptide)
The Concentration for 50% Inhibition (farnesylation of p21^H-ras) of the first is 20-fold higher: 100 µM for the first, 5 µM for the second.

Going from CVIS (peptide) to CVIL (peptide), the Concentration for 50% Inhibition (farnesylation of p21^H-ras) rises from 1 µM to 11 µM (11-fold).

Going from CIKS (peptide) to CVVM (peptide), the Concentration for 50% Inhibition (farnesylation of p21^H-ras) falls from over 100 µM to 0.15 µM.

First: CLLL (peptide)
Second: CVIM (peptide)
The Concentration for 50% Inhibition (farnesylation of p21^H-ras) of the first is 150-fold higher: 22 µM for the first, 0.15 µM for the second.

Going from CTVA (peptide) to CCVQ (peptide), the Concentration for 50% Inhibition (farnesylation of p21^H-ras) falls from 30 µM to 0.35 µM (86-fold).

First: CSIM (peptide)
Second: CLIL (peptide)
The Concentration for 50% Inhibition (farnesylation of p21^H-ras) of the first is 85-fold lower: 0.2 µM for the first, 17 µM for the second.

CAIM (peptide) and CIIM (peptide) are the same in Concentration for 50% Inhibition (farnesylation of p21^H-ras): 0.15 µM for the first, 0.15 µM for the second.

Going from CIIS (peptide) to CVLS (peptide), the Concentration for 50% Inhibition (farnesylation of p21^H-ras) rises from 0.35 µM to 3 µM (8.6-fold).

target: rat brain protein farnesyltransferase (rat); remark: another data set of the same source

N-AcGCVFM (peptide) and N-AcKCVFM (peptide) are within 1.5-fold of each other in Concentration for 50% Inhibition of Farnesylation of p21^H-ras: 0.43 µM for the first, 0.3 µM for the second.

First: N-Octanoyl-CVFM (peptide)
Second: N-AcSCVFM (peptide)
The Concentration for 50% Inhibition of Farnesylation of p21^H-ras of the first is 1.5-fold higher: 0.35 µM for the first, 0.23 µM for the second.

Compared with N-AcMCVFM (peptide), N-AcECVFM (peptide) is 1.7-fold higher in Concentration for 50% Inhibition of Farnesylation of p21^H-ras: 1.4 µM for the first, 2.4 µM for the second.

Compared with N-AcHCVFM (peptide), CCVFM (peptide) is 1.8-fold higher in Concentration for 50% Inhibition of Farnesylation of p21^H-ras: 0.24 µM for the first, 0.44 µM for the second.

First: N-AcCVWM (peptide)
Second: CVIM (peptide)
The Concentration for 50% Inhibition of Farnesylation of p21^H-ras of the first is 25-fold higher: 3.7 µM for the first, 0.15 µM for the second.

N-AcCVIM (peptide) and N-AcPCVFM (peptide) are within 1.5-fold of each other in Concentration for 50% Inhibition of Farnesylation of p21^H-ras: 0.15 µM for the first, 0.2 µM for the second.

Compared with N-AcDCVFM (peptide), N-CholylCVFM (peptide) is 9-fold lower in Concentration for 50% Inhibition of Farnesylation of p21^H-ras: 1.9 µM for the first, 0.21 µM for the second.

Compared with N-AcCCVFM (peptide), KCVFM (peptide) is 10-fold higher in Concentration for 50% Inhibition of Farnesylation of p21^H-ras: 0.11 µM for the first, 1.1 µM for the second.

N-AcCVFM (peptide) and CVWM (peptide) are within 1.5-fold of each other in Concentration for 50% Inhibition of Farnesylation of p21^H-ras: 0.25 µM for the first, 0.32 µM for the second.

For CVFM (peptide), the Concentration for 50% Inhibition of Farnesylation of p21^H-ras was 0.06 µM and 0.032 µM and 0.09 µM.

target: rat brain protein farnesyltransferase (rat); remark: another data set of the same source

CVIA (peptide) and “CVIM with lysine at the X position (peptide)” cannot be ordered by affinity for the enzyme as estimated by the concentration required for 50% inhibition: over 30 fold for the first, over 30 fold for the second.

CVAM (peptide) and “CVIM with lysine at the A2 position (peptide)” cannot be ordered by affinity for the enzyme as estimated by the concentration required for 50% inhibition: over 30 fold for the first, over 30 fold for the second.

target: rat brain protein farnesyltransferase (rat); remark: another data set of the same source

CVFM (peptide) was tested, and the affinity for the enzyme relative to CVIM (from 50% inhibition) was 6 fold.

Substance CVFM (peptide) has a half-maximal inhibition of farnesylation of p21^H-ras of 25 nM.

target: rat brain protein farnesyltransferase (rat); remark: another data set of the same source

CPIM (peptide) and “CVIM with glycine at the A2 position (peptide)” are the same in Concentration for 50% Inhibition of Farnesylation of p21^H-ras: 8 µM for the first, 8 µM for the second.

Compared with CGIM (peptide), CEIM (peptide) is 2.7-fold lower in Concentration for 50% Inhibition of Farnesylation of p21^H-ras: 4 µM for the first, 1.5 µM for the second.

Going from CVPM (peptide) to CKIM (peptide), the Concentration for 50% Inhibition of Farnesylation of p21^H-ras falls from 20 µM to 0.7 µM (29-fold).

“CVIM with glutamic acid at the A2 position (peptide)” and “CVIM with lysine at the A2 position (peptide)” cannot be ordered by affinity for the enzyme (from 50% inhibition): over 50 fold for the first, over 50 fold for the second.

target: rat brain protein farnesyltransferase (rat); remark: another data set of the same source

“CVIM with lysine at the X position (peptide)” and “CVIM with glycine at the X position (peptide)” cannot be ordered by Concentration for 50% Inhibition of Farnesylation of p21^H-ras: over 40 µM for the first, over 40 µM for the second.

Going from CVIF (peptide) to “CVIM with glutamic acid at the X position (peptide)”, the Concentration for 50% Inhibition of Farnesylation of p21^H-ras rises from 0.5 µM to over 40 µM.

target: rat brain protein farnesyltransferase (rat); remark: another data set of the same source

Substance CVIL (peptide) has a Concentration for 50% Inhibition of Farnesylation of p21^H-ras of 12 µM.

target: rat brain protein farnesyltransferase (rat); remark: another data set of the same source

Compared with CVFM (peptide), N-AcCVFM (peptide) is 3.9-fold higher in concentration giving 50% inhibition of farnesylation of p21^H-ras (FIG. 23A): 0.07 µM for the first, 0.27 µM for the second.

From patent US6083917
